For this series, the target named is T1, Cre recombinase (Punavirus P1).
T1 chain: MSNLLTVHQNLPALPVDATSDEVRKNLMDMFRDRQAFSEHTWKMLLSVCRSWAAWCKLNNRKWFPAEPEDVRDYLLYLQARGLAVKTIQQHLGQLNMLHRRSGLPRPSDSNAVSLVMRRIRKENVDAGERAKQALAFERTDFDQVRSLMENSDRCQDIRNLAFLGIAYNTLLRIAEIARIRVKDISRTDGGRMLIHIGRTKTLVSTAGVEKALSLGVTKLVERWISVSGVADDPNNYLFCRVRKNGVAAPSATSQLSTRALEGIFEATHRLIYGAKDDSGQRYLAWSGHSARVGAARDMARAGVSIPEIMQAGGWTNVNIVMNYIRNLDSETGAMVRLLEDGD
As to the kind of experiment: cell_activity; as above. The text has this:
Similar to the development of the original LoxPsym site by Hoess et al. (1986 J Cell Biochem), we edited the spacer of the LoxP site to obtain new non-directional recombination sites. In doing so, we focused on altering the first three nucleotides of the spacer (FIG. 2), as it was shown before that changing the nucleotides at position 4 and 5 of the spacer (T and A respectively) prevents recombination (Hoess et al 1986). The last three nucleotides were adapted accordingly to ensure the spacer remained palindromic. As such, we were able to design maximally 63 new potential LoxPsym sites. To test if the Cre enzyme was still able to recombine the new LoxPsym variants, we conducted a fluorescent-based assay in yeast via genomic integration of a fluorescence cassette which was flanked by identical LoxPsym variants at both sites (FIGS. 3A and 3C). Recombination of functional LoxPsym variants enables the deletion of the fluorescence cassette. The fraction of non-fluorescent cells in the population after induction of Cre-mediated recombination, was used to determine the recombination efficiency of the new LoxPsym sites. To verify if this set-up is valid for estimation of the recombination efficiency, the dual-fluorescent-reporter system shown in FIG. 3A was used to assess the frequency of inversion/deletion over time. […] Recombination efficiencies largely altered between different LoxPsym variants (Table 1). 63 new LoxPsym variants were obtained with altering recombination efficiencies ranging from 13% to 89%.

Residue numbers refer to the chain shown, from its start.

B1: LoxPsym-AGC (dsDNA)
DNA 1: ATAACTTCGTATAAGCTAGCTTATACGAAGTTAT
DNA 2: B1 DNA 1
Regarding B1, the activity stood at 32.6%.

B2: LoxPsym-CGA (dsDNA)
DNA 1: B1 DNA 1 with A14C, C16A, G19T, T21G
DNA 2: B1 DNA 1 with A14C, C16A, G19T, T21G
For B2, the activity turned out to be 54.4%.

B3: LoxPsym-CGT (dsDNA)
DNA 1: B1 DNA 1 with A14C, C16T, G19A, T21G
DNA 2: B1 DNA 1 with A14C, C16T, G19A, T21G
For the molecule B3, the activity was determined as 46.9%.

B4: LoxPsym-ATA (dsDNA)
DNA 1: B1 DNA 1 with G15T, C16A, G19T, C20A
DNA 2: B1 DNA 1 with G15T, C16A, G19T, C20A
For B4, the activity worked out at 43.1%.

B5: LoxPsym-GGG (dsDNA)
DNA 1: B1 DNA 1 with A14G, C16G, G19C, T21C
DNA 2: B1 DNA 1 with A14G, C16G, G19C, T21C
For the molecule B5, the activity came out at 45.6%.

B6: LoxPsym-AAG (dsDNA)
DNA 1: B1 DNA 1 with G15A, C16G, G19C, C20T
DNA 2: B1 DNA 1 with G15A, C16G, G19C, C20T
As for B6, the activity turned out to be 44.1%.

B7: LoxPsym-ACG (dsDNA)
DNA 1: B1 DNA 1 with G15C, C16G, G19C, C20G
DNA 2: B1 DNA 1 with G15C, C16G, G19C, C20G
As to B7, the activity came out at 51.1%.

B8: LoxPsym-AGA (dsDNA)
DNA 1: B1 DNA 1 with C16A, G19T
DNA 2: B1 DNA 1 with C16A, G19T
For B8, the activity worked out at 35.1%.

B9: LoxPsym-AAC (dsDNA)
DNA 1: B1 DNA 1 with G15A, C20T
DNA 2: B1 DNA 1 with G15A, C20T
Regarding B9, the activity turned out to be 46%.

B10: LoxPsym-ATC (dsDNA)
DNA 1: B1 DNA 1 with G15T, C20A
DNA 2: B1 DNA 1 with G15T, C20A
With B10, the activity was 56.5%.

B11: LoxPsym-TGA (dsDNA)
DNA 1: B1 DNA 1 with A14T, C16A, G19T, T21A
DNA 2: B1 DNA 1 with A14T, C16A, G19T, T21A
On to B11, for which the activity worked out at 58.8%.

B12: LoxPsym-CTC (dsDNA)
DNA 1: B1 DNA 1 with A14C, G15T, C20A, T21G
DNA 2: B1 DNA 1 with A14C, G15T, C20A, T21G
Take B12: the activity is 38.2%.

B13: LoxPsym-ACA (dsDNA)
DNA 1: B1 DNA 1 with G15C, C16A, G19T, C20G
DNA 2: B1 DNA 1 with G15C, C16A, G19T, C20G
Turning to B13, the activity stood at 38.3%.

B14: LoxPsym-AGG (dsDNA)
DNA 1: B1 DNA 1 with C16G, G19C
DNA 2: B1 DNA 1 with C16G, G19C
Consider B14, for which the activity was determined as 49.1%.

B15: LoxPsym-ACC (dsDNA)
DNA 1: B1 DNA 1 with G15C, C20G
DNA 2: B1 DNA 1 with G15C, C20G
In the case of B15, the activity was 41.4%.

B16: LoxPsym-GGC (dsDNA)
DNA 1: B1 DNA 1 with A14G, T21C
DNA 2: B1 DNA 1 with A14G, T21C
With B16, the activity amounted to 43.6%.

B17: LoxPsym-ATT (dsDNA)
DNA 1: B1 DNA 1 with G15T, C16T, G19A, C20A
DNA 2: B1 DNA 1 with G15T, C16T, G19A, C20A
On to B17, for which the activity came out at 42.2%.

B18: LoxPsym-GTC (dsDNA)
DNA 1: B1 DNA 1 with A14G, G15T, C20A, T21C
DNA 2: B1 DNA 1 with A14G, G15T, C20A, T21C
On to B18, for which the activity worked out at 44.3%.

B19: LoxPsym-AGT (dsDNA)
DNA 1: B1 DNA 1 with C16T, G19A
DNA 2: B1 DNA 1 with C16T, G19A
Turning to B19, the activity came to 43.4%.

B20: LoxPsym-GTG (dsDNA)
DNA 1: ATAACTTCGTATAGTGTACACTATACGAAGTTAT
DNA 2: B20 DNA 1
Take B20: the activity is 40.3%.

B21: LoxPsym-CTG (dsDNA)
DNA 1: B20 DNA 1 with G14C, C21G
DNA 2: B20 DNA 1 with G14C, C21G
Regarding B21, the activity was determined as 53.1%.

B22: LoxPsym-CTT (dsDNA)
DNA 1: B20 DNA 1 with G14C, G16T, C19A, C21G
DNA 2: B20 DNA 1 with G14C, G16T, C19A, C21G
With B22, the activity amounted to 34.8%.

B23: LoxPsym-TCA (dsDNA)
DNA 1: ATAACTTCGTATATCATATGATATACGAAGTTAT
DNA 2: B23 DNA 1
As for B23, the activity was 39.9%.

B24: LoxPsym-TTT (dsDNA)
DNA 1: B20 DNA 1 with G14T, G16T, C19A, C21A
DNA 2: B20 DNA 1 with G14T, G16T, C19A, C21A
Consider B24, for which the activity stood at 44.5%.

B25: LoxPsym-CAA (dsDNA)
DNA 1: B23 DNA 1 with T14C, C15A, G20T, A21G
DNA 2: B23 DNA 1 with T14C, C15A, G20T, A21G
As for B25, the activity is 59.7%.

B26: LoxPsym-CTA (dsDNA)
DNA 1: B20 DNA 1 with G14C, G16A, C19T, C21G
DNA 2: B20 DNA 1 with G14C, G16A, C19T, C21G
Turning to B26, the activity turned out to be 34.1%.

B27: LoxPsym-TCG (dsDNA)
DNA 1: B23 DNA 1 with A16G, T19C
DNA 2: B23 DNA 1 with A16G, T19C
For the molecule B27, the activity stood at 59%.

B28: LoxPsym-GCA (dsDNA)
DNA 1: B23 DNA 1 with T14G, A21C
DNA 2: B23 DNA 1 with T14G, A21C
In the case of B28, the activity came out at 59.1%.

B29: LoxPsym-GAA (dsDNA)
DNA 1: B20 DNA 1 with T15A, G16A, C19T, A20T
DNA 2: B20 DNA 1 with T15A, G16A, C19T, A20T
As to B29, the activity amounted to 46.2%.

B30: LoxPsym-CCT (dsDNA)
DNA 1: B23 DNA 1 with T14C, A16T, T19A, A21G
DNA 2: B23 DNA 1 with T14C, A16T, T19A, A21G
Consider B30, for which the activity was determined as 51.2%.

B31: LoxPsym-TCT (dsDNA)
DNA 1: B23 DNA 1 with A16T, T19A
DNA 2: B23 DNA 1 with A16T, T19A
B31: the activity amounted to 43.3%.

B32: LoxPsym-CCA (dsDNA)
DNA 1: B23 DNA 1 with T14C, A21G
DNA 2: B23 DNA 1 with T14C, A21G
As to B32, the activity is 53.9%.

Source of the values: patent US20260201396, “New LoxPsym Sites for Large-Scale Orthogonal Cre-Mediated Recombination” (VIB VZW, published 2026).
